Source: the nanobody polyreactivity screen of Harvey et al. (2022)

Assay: yeast display, Sf9 membrane polyspecificity reagent, FACS + sequencing; frameworks hold sequencing errors
Method in brief: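 Synthetic nanobody libraries on Saccharomyces cerevisiae BJ5465 were galactose-induced for 36–48 hours, stained 1 hour at 4 °C with 10% biotinylated, detergent-solubilized Sf9 membrane reagent and enriched on streptavidin microbeads. FACS then separated cells into low and high (top ~1%) gates by anti-HA (expression) and streptavidin (reagent binding) fluorescence. Genes were colony-PCR amplified, MiSeq 2 × 250 sequenced and CDR-length filtered. A clone's polyreactivity label is that of its gate of origin.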

Row | Sequence | polyreactivity (PSR sort gate)
1 | QVQLEESGGRLVQAGGSLRLSCAASGRIFNYYAMGWYRQAPGQERELVAAISNGGSTYYADSVKGRFTISRDNAKNTVYLQMNSLKPEDTAVYYGAAYQTYYARTELDYWGQGTLVTVSS | high polyreactivity
2 | QVQLEESGGVLVQAGGSHRLRCAASGRTIGWYAMGWYRQAPRKERELVAAIRSSTGSTYYADSVKGRFTISRDNAKNTVFLQMNSLKPEDTAVYDCAKRRADYSPRYGYWGQGTQVTVSS | high polyreactivity
3 | QVQLEESGGVLVQAGGSLRLSCAASGRTFGHYAMGWYRPAPGKERELVAAITRDDGTNYADSVKGRFTISGDNAKNTVYLQMNRLKPEDTAVYYCNADVWLRRVYDYWGQGTQVTVSS | low polyreactivity
4 | QVQLEESGRGLVQAGGSLRLSCAASGSTCYDYAMGWYRQAPGKERELVAASSRIGARTYYADSVKGRFTISRDNAKNTVYLQMNSQKPEDTAGYYCAATRVYSDYKYWGQGTQVTVSS | high polyreactivity
5 | QVQLEESGVGLVQAGGSLRLSCAASGRTFLRNAMGWYRQAPGKEMELVAAISWRGGSTYYADSVKGRFTISRDNAKNTVYLEMNSLKPEDTAVYYCNTFPSQYLWYDYWGQGTQVNVSS | high polyreactivity
6 | QVQLEESVGGLDQAVGSLRLSCAASGFTFNRYTMGWYRQAPGKEREFVASITRSGGSTYYADSVKGRFTISRDNAKNTVYLQMNSLTPEDTAVYYCAPVYQYSSRYDHWGQGTQVTVSS | high polyreactivity
7 | QVQLEESVGGLVQAGGSLRISCAASGRTFKLYAMGRKRQAPGKERELVATITRRGGSTYYADSVKGRFTISRDNAKNTVYLQMNSLKPEDTAVYYCASDAIGYYGTYDYWGQGTQVTVSS | high polyreactivity
8 | QVQLEESVGGLVQAGGSLRLSCAASGITFYDYTMGWYRQAPGKERELVAAISSRGGSTYYADSVKGRFTISRDNAKNTVYLQMNSLKPEDTAVYYCNARYNSWRYLAQYNYWGQGTQVTVSS | high polyreactivity
9 | QVQLEESVGGLVQAGGSLRLSCAASGRTFGRYAMGWYRQAPGKERELVAGISRSGDSTHYADSVKGRFTISRDNAKKTVYLQMNSLKPEDTAVYYCNKETPTIGARKYEDWGQGTQVTVSS | low polyreactivity
10 | QVQLEESVGGLVQAGGSLRLTCAASGSIFKTNAIGWYRQAPGKERELVAAIRASGGSTYYADSVKGRFTISRDNAKNSVYLQMNSLKPEDTAVYYCAARYWFKYYWGQGTQVTVSS | low polyreactivity
11 | QVQLEESWGGLVQAGGSLRLSCAASGRTFDTYAMGWNRQAPGKERELVAAITSGGSTYYADSVKGRFTISRDNAKNTVYLQMNSLKPEDTAVYYCAVSGQLYAYRYGYWGQGTQVTVSS | low polyreactivity
12 | QVQLEETGGGLVQAGGSLRLSCAASGFTFYQYAMGWYRKAPRKERELVAAISSSGTSTYYADSVKGRFTISRDNAKNTVYLQMNSLKPEDTAVYYCAARRYKLFYWGQGTQVTVSS | low polyreactivity
13 | QVQLGESCGRLVQAGGSLRLSCADSGLTFSVYAMGWYRQSPGKETELVAAISYSGDSTYADSVKGRFTISRDNAKNTVYLQMNSLKPEDTAGYYCHAPLVHQGYRRWYDYWGQGTQVTVSS | low polyreactivity
14 | QVQLGESGGGFVQAGGLLRLSCAASGRTFRVYAMGWYRQAPGKERELVAAITRGGSTYYADSVKGRFTFSRDNAQNTVYLQMNSLKPEDTAVYSCAADVLRTQPIGWYSHSPLEYWGQGTQVTVSS | high polyreactivity
15 | QVQLGESGGGIVQAGGSLRLSCAASAFIIKYYAMGWYRPAPGKETELVAAIDGSSASTYYADSVKGRFTISRDNAKNTVYLQMNSLKPEDTAVYYCAVARLRRGGVQYGYWGQGTQVTVSS | high polyreactivity
16 | QVQLGESGGGIVQAGGSLRLSCAASGRTFAFNAMGWYRQAPGKERELVAAIRWSGGSTYYADSVKGRFTISRDNAKNTVYLQMNSLKPEDTAVYYCATGKWGYFRYNYWGQGTQVTVSS | high polyreactivity

Row | Sequence | polyreactivity (PSR sort gate)
17 | QVQLGESGGGLFQAGGSLRLSCAASGFTFVYYAMGWYRQAPGKERELVATISGNGGRTYYADSVKGRFTISRDNAKNTVYLQMNSLKPEDTAVYYCAALLYISSVGYDYWGQGTQVTVSS | low polyreactivity
18 | QVQLGESGGGLFQAGGSLRLSCAASVRIFKGYNMGWYREAPRKEMELVAAISKSGGRTYYADSVKGRFTISRDNAKNTVYLQMNSQKPVDTAVYYCAARGGCKRPFGYQLQYDYWGQGTQVTVSS | high polyreactivity
19 | QVQLGESGGGLGQAGGSLSLSCAATGSIFPYNPMGWYRQAPGKERELVATINSRGGRTYYADSVKGRFTISRDNAKNTVYLQMNSLKPEDTAVYYCARYYSSALRYGYWGQGTQVTVSS | low polyreactivity
20 | QVQLGESGGGLLQAGGSHSLICADSGSTIRPNAMGWYTQAPGKERELVATIRGGGTSTYYADSVKGRFTISRDNAKNTVYLQLNSLKPEDTAVYYCAARGFYTGSYPGYYYWGQGTQVTVSS | high polyreactivity
21 | QVQLGESGGGLLQAGGSLRLSCAASGRISSQYAMGLYRQAPWKERELFAAISTSGDRTYYADSVKGRFTISRDNAKNTVYLQMNSLKPEDTAVYYCAKEGPYTYGRDIYEYWGQGTQVTVSS | low polyreactivity
22 | QVQLGESGGGLVEAGGSLRLSCAASGSTFNRYAMGWYRQAPGKERELVAAISFSGGRTYYADSVKGRFTISRDNAKNTVYLQMNSLKPEDTAVYYCAKVVYGYFTRAYTYNYWGHGTQVTVSS | high polyreactivity
23 | QVQLGESGGGLVQAGGSLLLSCAASGSIFRHYTMGWDSQAPGKERELVAVISSGGNTNYADSVKGRFTISRDNAKNTVYFQMNSLKPEDTAVYYCAARSHRYYSRVNYWGQGTQVTVSS | high polyreactivity
24 | QVQLGESGGGLVQAGGSLRLICAASGRIFYRNAMGWYRQAPGKERELVAGISNRGGSTYYADSVKGRFTISRDNAKNTVYLQMNSLKPEDTAVYYCATVPFSPPSAGPEYDYWGQGTQVTVSS | high polyreactivity
25 | QVQLGESGGGLVQAGGSLRLSCAASGFIFRAYAMGWYRQAPGKERELVASISSRGGSTYYADSVKGRFTISRDNAKNTVYLQMNSLKPEDTAVYYCNAVYTYFPGWKYDYWGQGTQVTVSS | high polyreactivity
26 | QVQLGESGGGLVQAGGSLRLSCAASGFTSVRYAKGWYRQAPGKERELVAAITWNGGSTYYADSVKGRFTISRDNAKKSVYLQMNSLKPEDTAVYYCAKDTPYRYSVAYDYWGQGTQVTVSS | high polyreactivity
27 | QVQLGESGGGLVQAGGSLRLSCAASGIIFDTYAMGWYRQAPGKQRELVAVISTRGTSTYYADSVKGRFTISRDNAKNTVYLQMNSLKPEDTEVYYCNAFGRYSYPTFDYWGQGTQVTVSS | high polyreactivity
28 | QVQLGESGGGLVQAGGSLRLSCAASGIIFYRYAMGWYRQAPGKERELVAAITWSGVSTSYADSVKGRFTISRDNAKNTVYLQMNSLKQEDTAVYYCNKDPGTLYGDMDSWGQGTQVTVSS | low polyreactivity
29 | QVQLGESGGGLVQAGGSLRLSCAASGRIFGGNAMGRYRQAPGKERELVATISSDGSTNYADSVKGRFTISRDIAKNTVYLQMNSLKPEDTAVYYCAKGFYTLTPHGMDYWGQGTQVTVSS | low polyreactivity
30 | QVQLGESGGGLVQAGGSLRLSCAASGRIFNVYAMGWYRQAPGKERELVAAISTGSPTYYADSVKGRFTISRDNAKNTVYLQMNSLKPEDTAVYYCATGYIHGDYWSFRHQYYYWGQGTQVTVSS | low polyreactivity
31 | QVQLGESGGGLVQAGGSLRLSCAASGRIFSHNAMGWDRQAPGKERELVAVISRSGTGTYYADSVKGRFTISRDNAKNTVYLQMNSLKPEDTAVYYCNTYYEWWYYWGQGTQVTVSS | high polyreactivity
32 | QVQLGESGGGLVQAGGSLRLSCAASGRIFSYYAMGWYRPAPGKERELVAAISYRGSSTNYADSVKGRFTISRDNAKNTVYFQMNSLKPEDTAVYYCATKFFRTAYEYWGQGTQVTVSS | high polyreactivity
